The supplement of paper PMC10724198
± gives the standard deviation of the averaged measurements.

Columns and labels:
[1] = test system: Saccharomyces cerevisiae; test: protein stability index of tFT-peptide fusion (C-terminal peptide) (PSI (0-1 scale)); higher = more stable (slower turnover)
Experimental: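 MPS profiling in S. cerevisiae of the tFT-X12 degron library: putative degron peptides plus stable controls, 12 aa, fused to the C-terminus of a sfGFP-mCherry timer. Cells are FACS-sorted into 8 mCherry/sfGFP bins and deep-sequenced. PSI runs from 0 (unstable) to 1 (stable). Backgrounds are wild type, das1Δ and doa10Δ at 30 °C, and wild type, das1Δ, cdc34-1 and cdc53-1 at 37 °C; 2-3 technical replicates each.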

[2] = test system: Saccharomyces cerevisiae; test: as above; conditions: genetic background: wild type; temperature: 30 C
[3] = genetic background: cdc34-1, temperature: 37 C
[4] = genetic background: cdc53-1, temperature: 37 C
[5] = genetic background: das1 deletion, temperature: 30 C
[6] = genetic background: das1 deletion, temperature: 37 C
[7] = genetic background: doa10 deletion, temperature: 30 C
[8] = genetic background: wild type, temperature: 30 C
[9] = genetic background: wild type, temperature: 37 C
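Also: PSI is a weighted mean of sequencing reads over stability bins, variants kept only with over 10 reads, mCherry proximal and sfGFP distal, peptide attached via GGGS linker.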

Sequence	protein stability index [1, 3]	protein stability index [1, 4]	protein stability index [1, 5]	protein stability index [1, 6]	protein stability index [1, 7]	protein stability index [1, 8]	protein stability index [1, 9]	protein stability index [2]
LLVFFLAIPSLV	0.286 ± 0.011	0.343 ± 0.02	0.23 ± 0.037	0.413 ± 0.0073	0.195 ± 0.014	0.219 ± 0.033	0.3853 ± 0.002	0.337 ± 0.031
LLVFSLLYPCLV	0.324 ± 0.0049	0.362 ± 0.017	0.289 ± 0.031	0.419 ± 0.013	0.241 ± 0.0036	0.272 ± 0.02	0.3913 ± 0.0032	0.345 ± 0.021
LLVIAIKVPANS	0.489 ± 0.013	0.485 ± 0.0072	0.352 ± 0.025	0.507 ± 0.018	0.337 ± 0.036	0.358 ± 0.012	0.485 ± 0.00075	0.429 ± 0.024
LLVYLYFFFSCS	0.309 ± 0.041	0.442 ± 0.045	0.292 ± 0.021	0.484 ± 0.005	0.2414 ± 0.0016	0.263 ± 0.011	0.42 ± 0.027	0.374 ± 0.022
LLYHFCLFFFRE	0.521 ± 0.044	0.592 ± 0.037	0.462 ± 0.024	0.619 ± 0.014	0.441 ± 0.015	0.449 ± 0.011	0.558 ± 0.053	0.513 ± 0.044
LMVLISVMFSLG	0.112 ± 0.0088	0.254 ± 0.029	0.149 ± 0.022	0.292 ± 0.012	0.113 ± 0.013	0.182 ± 0.032	0.231 ± 0.012	0.323 ± 0.022
LMWVFPRVVWLY	0.123 ± 0.037	0.102 ± 0.016	0.244 ± 0.042	0.321 ± 0.022	0.0838 ± 0.0041	0.0646 ± 0.0052	0.0611 ± 0.00062	0.0903 ± 0.014
LPLHTLLLCPPV	0.447 ± 0.037	0.459 ± 0.013	0.37 ± 0.03	0.4988 ± 0.003	0.345 ± 0.0046	0.382 ± 0.024	0.4782 ± 0.0033	0.493 ± 0.031
LPLVFYCFLLHS	0.49 ± 0.026	0.523 ± 0.0057	0.394 ± 0.029	0.518 ± 0.0063	0.386 ± 0.01	0.376 ± 0.035	0.509 ± 0.015	0.4422 ± 0.002
LPVPVLGFPPLA	0.703 ± 0.022	0.778 ± 0.018	0.664 ± 0.018	0.732 ± 0.032	0.659 ± 0.027	0.655 ± 0.015	0.71 ± 0.011	0.7186 ± 0.0014
LRCCGALPLYAY	0.251 ± 0.038	0.248 ± 0.03	0.238 ± 0.038	0.3968 ± 0.0033	0.189 ± 0.014	0.228 ± 0.028	0.341 ± 0.022	0.348 ± 0.018
LRFFYFLHFCIL	0.36 ± 0.033	0.366 ± 0.024	0.43 ± 0.018	0.504 ± 0.0076	0.256 ± 0.0083	0.223 ± 0.0052	0.286 ± 0.021	0.277 ± 0.03
LRRVHRIKLQVC	0.254 ± 0.06	0.431 ± 0.035	0.288 ± 0.029	0.477 ± 0.014	0.0938 ± 0.0029	0.0996 ± 0.015	0.102 ± 0.0019	0.178 ± 0.094
LRVAWVCISIVA	0.0375 ± 0.005	0.0899 ± 0.006	0.0876 ± 0.023	0.164 ± 0.0029	0.0363 ± 0.011	0.0495 ± 0.015	0.0664 ± 0.0091	0.117 ± 0.027
LRVPCPPCCVFV	0.568 ± 0.049	0.69936 ± 0.0003	0.616 ± 0.016	0.727 ± 0.0099	0.33 ± 0.015	0.334 ± 0.009	0.4302 ± 0.0026	0.398 ± 0.027
